Substitutions are numbered along the chain they refer to.
B1: #21 (antibody, human IgG1, V domains shown)
VH: QVQLQQSGAELMKPGASVKISCKATGSTFSSYWIEWVKQRPGHGLEWIGEILPGSGSTNYNEKFKGKATFTADTSSNTAYMQLSSLTSEDSAVYYCARSGAGGYDSGAFAYWGQGTLVTVSA
VL: DIVLTQSPASLAVSLGQRATISCRASESVDTYGNSFMHWYQQKPGQPPKLLIYRTSNLESGIPARFSGSGSRTDFTLTINPVEADDVATYYCQQSNEDPWTFGGGTKLEIK
notes: also called D2M002-021
B2: #8 (antibody, human IgG1, V domains shown)
VH: B1 VH with Q1E, S7P, S27Y, Y32S, I34T
VL: B1 VL with V29I
notes: also called D2M002-008
B3: #11 (antibody, human IgG1, V domains shown)
VH: B1 VH with Q1E, S27Y, S31N, N59D, K65E
VL: B1 VL with V3Q, L4M
notes: also called D2M002-011
B4: #22 (antibody, human IgG1, V domains shown)
VH: B1 VH with S27Y, F29L
VL: B1 VL
notes: also called D2M002-022
B5: #27 (antibody, human IgG1, V domains shown)
VH: B1 VH with Q1E, A24I, S27Y, G44D, T69S, S84N
VL: B1 VL
notes: also called D2M002-027
B6: #28 (antibody, human IgG1, V domains shown)
VH: B1 VH with Q1E, S27Y, A122S
VL: B1 VL with L4M
notes: also called D2M002-028
B7: #3 (antibody, human IgG1, V domains shown)
VH: QIQLLQSGPELVKPGASVKMSCKASGYTFTRYVMYWVKQKPGQGLEWIGYINPDNDGTKYNEKFKGKATLTSDKSSSTAYMELSSLTSEDSAVYYCARGDLELLPYYDYVRNAMDYWGQGTSVTVSS
VL: DIQMTQSPASLSASVGETVTITCRASGNIHNYLAWYQQKQGKSPQLLVYNAKTLADGVPSRFSGSGSGTQYSLKINSLQPEDFGSYYCQHFWSTPPTFGGGTKLEIK
notes: also called D2M002-003
B8: #12 (antibody, human IgG1, V domains shown)
VH: B1 VH with V2I, Q5L, S27Y, S31N, A122S
VL: B1 VL with T31S, T89A
notes: also called D2M002-012
B9: #16 (antibody, human IgG1, V domains shown)
VH: B1 VH with Q1E, S27N, G44D, S84N
VL: B1 VL with V3E, L4M, V29I, T31S
notes: also called D2M002-016
B10: #17 (antibody, human IgG1, V domains shown)
VH: B1 VH with Q1E, A24T, S27N, G44D, T58S, S84N
VL: B1 VL with T31S, A64S
notes: also called D2M002-017
B11: #18 (antibody, human IgG1, V domains shown)
VH: B1 VH with Q1E, A24T, S27N, G44D, S84N
VL: B1 VL with T31S
notes: also called D2M002-018
B12: #20 (antibody, human IgG1, V domains shown)
VH: B1 VH with L4F, A9V, S27N, S31N, G44D, S84N
VL: B1 VL with L4M, T31S
notes: also called D2M002-020
B13: #23 (antibody, human IgG1, V domains shown)
VH: B1 VH with L4M, S7P, S27Y, S31R, S55D, E62A, K67Q, L83F, S88Y, A122S
VL: B1 VL
notes: also called D2M002-023
B14: #29 (antibody, human IgG1, V domains shown)
VH: B1 VH with Q1E, L11V, M12K, S27Y, S91F, A92T, A110G, A122S
VL: B1 VL with L4M, V29I, T55A
notes: also called D2M002-029
B15: #31 (antibody, human IgG1, V domains shown)
VH: B1 VH with L4M, Q6P, S7F, K19R, S27Y, Y32S, S57T, A110T
VL: B1 VL with V29I, T55A
notes: also called D2M002-031
B16: #35 (antibody, human IgG1, V domains shown)
VH: B1 VH with K19R, S27Y, Y32S, A110T
VL: B1 VL with V29I, T55A
notes: also called D2M002-035
B17: #36 (antibody, human IgG1, V domains shown)
VH: B1 VH with K19R, S27Y, Y32S, S57T, A110T
VL: B1 VL with V29I, T55A
notes: also called D2M002-036
B18: #40 (antibody, human IgG1, V domains shown)
VH: B1 VH with Q1E, A24T, S27N, G44D, S55R, Y60N, T69P, S84N, A101G
VL: B1 VL
notes: also called D2M002-040
B19: #41 (antibody, human IgG1, V domains shown)
VH: DVQLQQSGAELMKPGASVKISCKATGYTFSSSWIEWVKQRPGHGLEWIGEILPGSGNTSYNEKFKGKATFTADTSSSAAYMQLSSLTSEDSAVYYCARSGLYYDYGGFAYWGQGTLVTVSA
VL: B1 VL with W100F, G104S
notes: also called D2M002-041
B20: D2M002-101 (antibody, V domains shown)
VH: QVQLVQSGAEVKKPGASVKVSCKASGYTFTRYVMHWVRQAPGQRLEWMGWINPNNEETKYSQKFKGRVTLTRDTSASTAYMELSSLRSEDTAVYYCARADLEILPYYDHARNAMDYWGQGTLVTVSS
VL: DIQMTQSPSSVSASVGDRVTITCRASENIYSHLAWYQQKPGKAPKLLVYNAKSLQSGVPSRFSGSGSGTDFTLTISSLQPEDFATYYCQHFWSTPPTFGGGTKVEIK
notes: humanized and optimized variant tested beside D2M002-002; also called P211_A12
B21: D2M002-122 (antibody, V domains shown)
VH: QVQLVQSGAEVKKPGASVKVSCKASGYTFTSYWIEWVRQAPGQGLEWIGEILPGEGSTNYNAKFKGRVTFTTDTSTSTAYMELRSLRSDDTAVYYCARSGAGGYDSGAFAYWGQGTLVTVSS
VL: AIQLTQSPSSLSASVGDRVTITCRASESVDTYGNSFMHWYQQKPGKAPKLLVYRTSNLESGVPSRFSGSGSGTDFTLTISSLQPEDFATYYCQQSNEDPWTFGGGTKVEIK
B22: D2M002-124 (antibody, V domains shown)
VH: B21 VH with E55S
VL: B21 VL

Each binder was assayed against T1, human LILRB2 expressed on cells (human, UniProt Q8N423 22-597) (assay: flow cytometry, CHO-LILRB2 cells).
T1 construct: In 293T cells it was expressed from pCMV3-LILRB2-GFP; also called CHO-LILRB2; Jurkat-LILRB2
T1 sequence (Q8N423 other isoform, or with tags, fused parts or gaps limits assumed): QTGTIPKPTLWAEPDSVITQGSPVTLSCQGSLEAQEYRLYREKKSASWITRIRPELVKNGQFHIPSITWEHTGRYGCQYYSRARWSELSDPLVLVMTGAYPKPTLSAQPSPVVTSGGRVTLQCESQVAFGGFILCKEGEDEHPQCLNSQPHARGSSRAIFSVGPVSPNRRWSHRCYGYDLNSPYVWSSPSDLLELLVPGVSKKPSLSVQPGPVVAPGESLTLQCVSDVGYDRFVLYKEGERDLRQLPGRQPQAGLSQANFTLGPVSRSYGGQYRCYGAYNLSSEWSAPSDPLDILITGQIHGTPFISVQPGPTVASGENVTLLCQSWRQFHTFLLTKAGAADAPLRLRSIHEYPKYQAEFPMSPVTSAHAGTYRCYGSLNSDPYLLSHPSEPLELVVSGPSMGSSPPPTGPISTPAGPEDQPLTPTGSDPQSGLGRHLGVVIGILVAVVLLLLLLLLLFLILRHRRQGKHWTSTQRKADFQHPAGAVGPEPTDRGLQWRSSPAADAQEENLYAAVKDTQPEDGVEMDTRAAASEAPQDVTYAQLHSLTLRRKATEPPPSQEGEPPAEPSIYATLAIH
With B1 the EC50 was 0.894 mg/L and the “gMFI (max)” value was 25600. For B2, the EC50 was 0.565 mg/L and the “gMFI (max)” value was 24800. With B3 the EC50 was 1.2 mg/L and the “gMFI (max)” value was 21600. For B4, the EC50 was 0.911 mg/L and the “gMFI (max)” value was 26300. With B5 the EC50 was 0.435 mg/L and the “gMFI (max)” value was 23900. In the case of B6, the EC50 is reported as 0.836 mg/L and the “gMFI (max)” value is reported as 26600. In the case of B7, the EC50 is reported as 0.058 mg/L and the “gMFI (max)” value is reported as 18500.

These binders were tested against T2, LILRB2-ECD-HIS (SinoBiological Cat #: 14132-H02H) (human, UniProt Q8N423 22-460) (assay: SPR (Carterra LSA), antibody captured, antigen injected;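 also: kd obtained from kinetic analysis of antibody binding to the antigen, with association and dissociation phases fitted in the instrument software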).
T2 construct: Bought protein; also called monomeric antigen LILRB2-ECD-HIS; not shown: His tag
T2 sequence (Q8N423 other isoform, or with tags, fused parts or gaps H02H H02H): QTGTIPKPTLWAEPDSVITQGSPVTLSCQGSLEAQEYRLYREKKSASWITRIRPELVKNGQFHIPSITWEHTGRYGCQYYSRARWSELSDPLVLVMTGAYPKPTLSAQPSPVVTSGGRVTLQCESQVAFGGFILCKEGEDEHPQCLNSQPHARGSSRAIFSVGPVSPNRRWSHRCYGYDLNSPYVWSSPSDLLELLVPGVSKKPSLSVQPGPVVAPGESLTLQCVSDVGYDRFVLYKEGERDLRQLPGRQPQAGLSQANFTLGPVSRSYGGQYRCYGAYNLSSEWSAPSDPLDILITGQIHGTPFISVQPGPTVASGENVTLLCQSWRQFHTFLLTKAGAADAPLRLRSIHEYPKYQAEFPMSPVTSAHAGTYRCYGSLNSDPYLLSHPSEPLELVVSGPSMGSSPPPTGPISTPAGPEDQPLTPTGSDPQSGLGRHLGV
Binder B1 has a Kd of 0.1 nM. B2 showed a Kd of 0.191 nM. In the case of B3, the Kd is reported as 0.0213 nM. For B8, the Kd was 0.2 nM. B9 gave a Kd of 0.0385 nM. B10 gave a Kd of 0.0476 nM. B11 showed a Kd of 0.0526 nM. B12 was tested, and the Kd was 0.2 nM. For B4, the Kd was 0.0323 nM. B13 was tested, and the Kd was 0.636 nM. B5 showed a Kd of 0.0481 nM. B6 gave a Kd of 0.0385 nM. B14 showed a Kd of 1.59 nM. For B15, the Kd was 1.26 nM. Work on B16 yielded a Kd of 0.617 nM. Work on B17 yielded a Kd of 0.145 nM. B18 gave a Kd of 3.05 nM. With B7 the Kd was 0.542 nM. Work on B19 yielded a Kd of 0.624 nM.

The binders below were run against T3, LILRB1-ECD-HIS (SinoBiological Cat #: 16014-H02H) (human, UniProt Q8NHL6 24-461) in the same assay as above.
T3 construct: Bought protein; also called monomeric antigen LILRB1-ECD-HIS; not shown: His tag
T3 sequence (Q8NHL6 other isoform, or with tags, fused parts or gaps H02H H02H): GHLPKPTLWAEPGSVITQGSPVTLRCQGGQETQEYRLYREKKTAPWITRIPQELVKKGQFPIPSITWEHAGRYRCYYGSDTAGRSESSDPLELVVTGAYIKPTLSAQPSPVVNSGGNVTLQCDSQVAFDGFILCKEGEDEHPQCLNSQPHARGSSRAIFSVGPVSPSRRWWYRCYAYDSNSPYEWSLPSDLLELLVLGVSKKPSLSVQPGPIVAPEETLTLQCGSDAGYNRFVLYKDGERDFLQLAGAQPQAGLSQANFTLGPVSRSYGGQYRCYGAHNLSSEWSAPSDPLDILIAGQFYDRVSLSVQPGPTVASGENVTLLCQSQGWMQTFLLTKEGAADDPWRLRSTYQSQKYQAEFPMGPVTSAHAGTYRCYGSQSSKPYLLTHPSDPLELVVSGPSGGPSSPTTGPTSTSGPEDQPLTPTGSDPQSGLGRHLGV
B1 was tested, and the Kd was 0.667 nM. B2 was tested, and the Kd was 0.64 nM. In the case of B3, the Kd is reported as 0.417 nM. In the case of B8, the Kd is reported as 1.6 nM. With B9 the Kd was 0.714 nM. Work on B10 yielded a Kd of 1.18 nM. B11 showed a Kd of 1.36 nM. B12 was tested, and the Kd was 1.19 nM. For B4, the Kd was 0.588 nM. In the case of B13, the Kd is reported as 7.65 nM. With B5 the Kd was 0.556 nM. With B6 the Kd was 0.882 nM. With B14 the Kd was 28.7 nM. Binder B15 has a Kd of 20 nM. With B16 the Kd was 10.4 nM. B17 showed a Kd of 3.44 nM. Work on B18 yielded a Kd of 34.4 nM. B7 was tested, and the Kd was 57.1 nM. In the case of B19, the Kd is reported as 23.2 nM.

The binders below were run against T4, human LILRB1 expressed on cells (human, UniProt Q8NHL6 24-650) (assay: flow cytometry, Jurkat-LILRB1 cells).
T4 construct: In 293T cells it was expressed from pCMV3-LILRB1-GFP; also called CHO-LILRB1; Jurkat-LILRB1
T4 sequence (Q8NHL6 other isoform, or with tags, fused parts or gaps limits assumed): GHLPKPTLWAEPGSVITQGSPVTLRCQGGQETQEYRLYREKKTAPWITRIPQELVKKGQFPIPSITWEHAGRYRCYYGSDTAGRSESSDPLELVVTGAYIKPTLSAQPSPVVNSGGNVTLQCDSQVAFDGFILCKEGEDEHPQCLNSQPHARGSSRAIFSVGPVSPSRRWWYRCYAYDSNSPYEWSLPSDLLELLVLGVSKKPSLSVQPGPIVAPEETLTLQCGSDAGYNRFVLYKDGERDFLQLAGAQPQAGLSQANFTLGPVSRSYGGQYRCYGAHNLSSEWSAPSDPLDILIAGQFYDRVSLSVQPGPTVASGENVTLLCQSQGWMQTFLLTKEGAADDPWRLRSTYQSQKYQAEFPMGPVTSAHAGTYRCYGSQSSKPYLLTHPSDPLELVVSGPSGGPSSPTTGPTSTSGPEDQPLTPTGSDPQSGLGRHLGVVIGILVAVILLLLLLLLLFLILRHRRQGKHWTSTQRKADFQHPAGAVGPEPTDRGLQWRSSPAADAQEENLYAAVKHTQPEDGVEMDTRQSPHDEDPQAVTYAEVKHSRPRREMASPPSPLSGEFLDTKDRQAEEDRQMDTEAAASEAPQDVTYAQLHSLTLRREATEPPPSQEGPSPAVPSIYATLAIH
In the case of B20, the EC50 is reported as 0.201 mg/L. B21 gave an EC50 of 1.6 mg/L. For B22, the EC50 was 1.86 mg/L.

Each binder was assayed against T4, human LILRB1 expressed on cells (assay: flow cytometry, CHO-LILRB1 cells).
B2 gave an EC50 of 0.768 mg/L. For B3, the EC50 was 1.13 mg/L. With B9 the EC50 was 2.66 mg/L. With B4 the EC50 was 2.01 mg/L. Binder B5 has an EC50 of 1.72 mg/L.

Each binder was assayed against T4, human LILRB1 expressed on cells (assay: flow cytometry, Jurkat-LILRB1 cells; blocked ligand: APC HLA-G trimer tetramer).
B20 gave an IC50 of 0.138 mg/L. B21 showed an IC50 of 0.501 mg/L. With B22 the IC50 was 0.427 mg/L.

What follows are binders tested against T1, human LILRB2 expressed on cells (assay: flow cytometry, Jurkat-LILRB2 cells; blocked ligand: APC HLA-G monomer tetramer).
In the case of B20, the IC50 is reported as 0.025 mg/L. For B21, the IC50 was 0.022 mg/L. With B22 the IC50 was 0.03 mg/L.

Biological target: T4, human LILRB1 expressed on cells
Assay: flow cytometry, CHO-LILRB1 cells
Remark: another data set of the same source
In the case of B1, the EC50 is reported as 2.35 mg/L and the “gMFI (max)” value is reported as 50600. For B2, the EC50 was 1.08 mg/L and the “gMFI (max)” value was 46500. With B3 the EC50 was 1.46 mg/L and the “gMFI (max)” value was 40000. B4 was tested, and the EC50 was 1.99 mg/L and the “gMFI (max)” value was 49300. B5 was tested, and the EC50 was 1.02 mg/L and the “gMFI (max)” value was 35700. For B6, the EC50 was 1.83 mg/L and the “gMFI (max)” value was 40300. For B7, the EC50 was 0.264 mg/L and the “gMFI (max)” value was 29900.

The binders below were run against T1, human LILRB2 expressed on cells (assay: flow cytometry, Jurkat-LILRB2 cells).
B20 showed an EC50 of 0.131 mg/L. With B21 the EC50 was 0.111 mg/L. Work on B22 yielded an EC50 of 0.145 mg/L.

The binders below were run against T4, human LILRB1 expressed on cells (assay: flow cytometry, CHO-LILRB1 cells; blocked ligand: APC HLA-G trimer tetramer).
For B2, the IC50 was 0.26 mg/L. With B3 the IC50 was 0.367 mg/L. B9 was tested, and the IC50 was 1.18 mg/L. For B4, the IC50 was 0.758 mg/L. B5 showed an IC50 of 0.569 mg/L.

Source: patent US20250171534A1 (D2M BIOTHERAPEUTICS, published 2025)
